Assay results as given in paper PMC5430804, “Structural and biochemical insights of CypA and AIF interaction” (Scientific Reports, 2017).
*: point of attachment. Dabcyl = CN(C)c1ccc(N=Nc2ccc(C(=O)*)cc2)cc1; EDANS = O=S(=O)(O)c1cccc2c(NCCN*)cccc12

Legend:
AIF(370-394) = target: T1, AIF(370-394) (Homo sapiens, UniProt O95831); assay: EnSpire label-free direct binding to AIF(370-394); details: for KD: Corning Epic/EnSpire label-free, biotinylated AIF(370-394) immobilized on streptavidin-coated biosensor, PBS 1X pH 7.4, readings over 1 hour, means of triplicates; for binding / affinity for AIF(370-394), in words: EnSpire label-free
T1 construct: host or cells: chemical synthesis (synthetic peptide)
Protocol: Although peptide-peptide interaction insights might be prejudiced by the lack of appropriate 3D structures and require additional experimental assessment with full length proteins, they can mimic and anticipate in several cases real interactions. […] KD values determined by this approach are reported in Table 1 and the binding curves are shown in Supplementary Fig. S4.
(§1) Direct binding assays were performed with the Corning Epic label-free technology with the EnSpire Multimode Plate Reader (PerkinElmer, Rodgau, Germany) as reported in literature.1 Briefly, […]
(§2) µg/mL streptavidin solution in 20 mM sodium acetate at pH 4.0, for 16 h at 4 °C. The microplate was subsequently washed three times with phosphate-buffered saline (PBS 1X, pH 7.4). After […]
(§3) assay buffer (PBS 1X, pH 7.4) for 2 hours followed by three washing steps in PBS 1X at pH 7.4.
(§4) After 2 h incubation, a baseline reading was recorded. Then 30 µL of peptide samples were dispensed in the plate. The final readings were taken over a period of 1 hour. Label-free responses were measured as shifts in reflected wavelength and were expressed in picometers (Fig. S4). The difference between the last baseline measurements and the maximum signal was used to determine the KD values (Table 1 in the main text). […]
(§5) biosensor by adding directly 100 µg/mL of protein in 20 mM sodium acetate pH 4.0, for 16 h at 4 […]
(§6) by adding 200 µg/mL of protein in 20 mM sodium acetate pH 5.5, for 16 h at 4 °C. […]
(§7) the procedure described above. Results were analyzed using the EnSpire label-free user interface software. Plots were generated using GraphPad PrismR V-5.01 (GraphPad Software, La Jolla, CA). […]
Graphs were generated using GraphPad PrismR V-5.01 (GraphPad Software, La Jolla, CA). Results are means of triplicates.
(§8) (1 picture or pasted object on this page, not shown here)

AIF(Δ1-121) = AIF(Δ1-121) (Homo sapiens, UniProt O95831); assay: EnSpire label-free direct binding to AIF(Δ1-121); details: for KD: Corning Epic/EnSpire label-free, AIF(Δ1-121) immobilized on biosensor (100 µg/mL, 20 mM sodium acetate pH 4.0), PBS 1X pH 7.4, readings over 1 hour, means of triplicates
Protocol: as §1, §2, §3, §4, §5, §6, §7
Results were analyzed using the EnSpire label-free user interface software. Graphs were generated using GraphPad PrismR V-5.01 (GraphPad Software, La Jolla, CA). Results are means of triplicates.
as §8

CypA and CypA^R55A [1] = assay: EnSpire label-free binding of AIF to immobilized CypA and CypA^R55A; details: CypA and CypAR55A immobilized, means of triplicates
Protocol: as §1, §2, §3, §4
biosensor by adding directly 100 µg/mL of protein in 20 mM sodium acetate pH 4.0, for 16 h at 4 °C (Fig. S5). […]
the procedure described above. Results were analyzed using the EnSpire label-free user interface software. […]
coated with CypA wild type with and without the CsA. Results were analyzed using the EnSpire label-free user interface software. […]
(B). Results were analyzed using the EnSpire label-free user interface software. […]

[2] = tested on: CypA-CsA preformed complex; assay: ITC competition: AIF(370-394) titrated onto CypA-CsA preformed complex; type: binding; details: AIF(370-394) 5 to 500 μM titrated onto CypA-CsA complex, 25 °C
Protocol: Figure 5 ITC binding assay. […] The bottom panels show the integrated heat of each injection after correction for the heat of dilution of ligands. Curves represent the best fit to a single-site binding model. (C, D) ITC competition assays.
ITC experiments were performed at 25 °C using a MicroCal ITC200 (GE Healthcare Bio-Sciences AB, Sweden). Protein and peptide samples were dialyzed in phosphate saline buffer (PBS 1X) containing 1 mM DTT, pH 7.4. […] Data were analyzed using the “Origin” software (MicroCal). The dissociation constant (KD), molar binding stoichiometry (n) and the binding enthalpy (ΔH), entropy (ΔS) and Gibbs free energy (ΔG) were determined by fitting the binding isotherm to a one-site model with MicroCal Origin software. All ITC experiments were performed in triplicate.

CypA/CsA complex = assay: NMR competition with preformed CypA/CsA complex; type: binding; details: AIF(370-394) gradually added to preformed CypA/CsA complex
CypA and CypA^R55A [3] = assay: Competition of CypA/substrate complex formation (fluorescence quenching); type: binding
Excerpt: Results are means of triplicates.
as §8

CypA [4] = target: T2, CypA (Homo sapiens, UniProt P62937); details: binding to CypA; cited from earlier work
T2 construct: His tag (6His); made in house
Excerpt: CSPs were quantified in terms of ΔδHNavs and classified as strong, medium and weak (see Methods section for details).

AIF(Δ1-121)/CypA complex = tested on: AIF(Δ1-121)/CypA complex; parameters: method as in PMID 24434516; details: cited from earlier work
neuronal cells = tested on: neuronal cells; parameters: method as in PMID 24434516; details: cited from earlier work
CypA [5] = target: T2, CypA; assay: Fluorescence quenching binding of FRET substrate; details: excitation 340 nm, emission 510 nm
Excerpt: probe clusters) and CS003 (11 probe clusters), CS004 (7 probe clusters), CS005 (4 probe clusters), CS006 (4 probe clusters) and CS007 (4 probe clusters), CS008 (3 probe clusters), CS009 (2 probe clusters). The top scoring ligand-binding site identified by FTMap on CypA is the active site, while the second, CS001 (Figure S7) is constituted by loops connecting α1-β3 (G42-C52) and a portion of the loop connecting β4-β5 (G65-S99), close to the catalytic site of CypA within the same interaction surface identified by NMR studies and mapped by trypsin MS-based foot-printing and contains 19 probe clusters. […]
Fluorescence-based assays
Fluorescence quenching assays were performed using the FRET substrate Ac-EK(Dabcyl)PPFAE(EDANS)KA-NH2 (MW 1556.2 amu) reported in literature.6 At 0.23 ng/μL (0.15 μM) the substrate provides a significant fluorescence emission at 510 nm compared to the buffers used in the assay (PBS 1X) (Figure S8A). […] Kinetic constants were determined by fitting data of fluorescence maxima at 510 nm of EDANS upon protein additions. […]
(Fig. S8B, red and blue lines, respectively) on the CypA/substrate complex formation were determined using a 10-fold excess (1.5 μM) of compounds. […]
Figure S8. Binding assay based on fluorescence quenching. (A) Fluorescence emission spectrum of CypA substrate. Samples were excited at 340 nm, and the emission in the range of 450-600 nm was measured. […]

Chain of AIF(Δ1-121) (O95831 122-613, stated change not applied): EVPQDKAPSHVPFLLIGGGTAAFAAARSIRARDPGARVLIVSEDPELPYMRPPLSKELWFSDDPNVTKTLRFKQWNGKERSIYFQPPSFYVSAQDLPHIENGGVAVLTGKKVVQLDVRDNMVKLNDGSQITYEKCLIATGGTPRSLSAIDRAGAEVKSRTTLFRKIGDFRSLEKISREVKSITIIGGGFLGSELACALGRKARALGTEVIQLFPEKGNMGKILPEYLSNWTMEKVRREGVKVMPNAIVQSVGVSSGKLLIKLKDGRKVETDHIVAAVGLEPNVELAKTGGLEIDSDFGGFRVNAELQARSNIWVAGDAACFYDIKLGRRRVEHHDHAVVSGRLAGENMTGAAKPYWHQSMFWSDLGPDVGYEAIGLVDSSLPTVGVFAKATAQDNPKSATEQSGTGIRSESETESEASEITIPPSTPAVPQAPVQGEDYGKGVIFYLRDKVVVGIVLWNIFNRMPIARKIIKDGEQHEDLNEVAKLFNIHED
T1 sequence (O95831 370-394 limits assumed): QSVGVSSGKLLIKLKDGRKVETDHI
T2 sequence (P62937 whole entry): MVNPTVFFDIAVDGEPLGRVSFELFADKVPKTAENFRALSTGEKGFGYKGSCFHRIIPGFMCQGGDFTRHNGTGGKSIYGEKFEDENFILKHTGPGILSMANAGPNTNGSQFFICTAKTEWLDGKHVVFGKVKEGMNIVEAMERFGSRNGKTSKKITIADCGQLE

Compound: CypA(55-69)R69: CypA(55-69) with R69 replaced by alanine (RIIPGFMCQGGDFTA)
- KD (AIF(370-394)): No binding
- binding / affinity for AIF(370-394), in words (AIF(370-394)): completely abrogated the binding to both the AIF forms
- binding / affinity for AIF(Δ1-121), in words (AIF(Δ1-121); EnSpire label-free): completely abrogated the binding to both the AIF forms

Compound: AIF(Δ1-121): apoptogenic (pro-apoptotic) form of AIF
- binding to CypA versus CypA^R55A (CypA and CypA^R55A [1]): bound CypA and CypA^R55A in a similar way

Compound: CypA(154-165): CypA-derived synthetic peptide, residues 154-165 (KKITIADCGQLE)
- KD (AIF(370-394)): No binding
- binding / affinity for AIF(370-394), in words (AIF(370-394)): did not interact with AIF(370-394)
- KD (AIF(Δ1-121)): No binding

Compound: CC[C@H](C)[C@H](NC(=O)[C@H](Cc1c[nH]cn1)NC(=O)[C@H](CC(=O)O)NC(=O)[C@@H](NC(=O)[C@H](CCC(=O)O)NC(=O)[C@@H](NC(=O)[C@H](CCCCN)NC(=O)[C@H](CCCNC(=N)N)NC(=O)CNC(=O)[C@H](CC(=O)O)NC(=O)[C@H](CCCCN)NC(=O)[C@H](CC(C)C)NC(=O)[C@H](CCCCN)NC(=O)[C@@H](NC(=O)[C@H](CC(C)C)NC(=O)[C@H](CC(C)C)NC(=O)[C@H](CCCCN)NC(=O)CNC(=O)[C@H](CO)NC(=O)[C@H](CO)NC(=O)[C@@H](NC(=O)CNC(=O)[C@@H](NC(=O)[C@H](CO)NC(=O)[C@H](CCC(N)=O)NC(C)=O)C(C)C)C(C)C)[C@@H](C)CC)C(C)C)[C@@H](C)O)C(N)=O [AIF(370-394)]
- binding to CypA versus CypA^R55A (CypA and CypA^R55A [1]): bound CypA and CypA^R55A in a similar way
- heat exchange [2]: no apparent heat exchange was observed
- AIF(370-394) interaction with CypA after CsA binding (CypA/CsA complex): CsA binding to CypA did not fully abrogate the AIF(370-394) interaction with CypA
- effect on CypA and CypA^R55A binding to substrate (CypA and CypA^R55A [3]; 10-fold excess (1.5 μM) of compound, fluorescence quenching, 510 nm, triplicates): unable to prevent the binding of both CypA and CypA^R55A to the substrate
- effect on enzyme-substrate recognition (CypA and CypA^R55A [3]; larger excess of AIF(370-394), not shown): does impair the enzyme-substrate recognition
- KD, in words (CypA [4]): low micromolar range
- inhibition of AIF(Δ1-121)/CypA complex formation in vitro (AIF(Δ1-121)/CypA complex): able to inhibit the AIF(Δ1-121)/CypA complex formation in vitro
- neuroprotection (neuronal cells; AIF(Δ1-121)/CypA-mediated glutamate-induced cell death): pronounced neuroprotection
- nuclear translocation of AIF and CypA (neuronal cells): blocking the nuclear translocation of the two proteins

Compound: Ac-EK(Dabcyl)PPFAE(EDANS)KA-NH2 (SMILES CC(=O)N[C@@H](CCC(=O)O)C(=O)N[C@@H](CCCCNC(=O)c1ccc(N=Nc2ccc(N(C)C)cc2)cc1)C(=O)N1CCC[C@H]1C(=O)N1CCC[C@H]1C(=O)N[C@@H](Cc1ccccc1)C(=O)N[C@@H](C)C(=O)N[C@@H](CCC(=O)NCCNc1cccc2c(S(=O)(=O)O)cccc12)C(=O)N[C@@H](CCCCN)C(=O)N[C@@H](C)C(N)=O) [CypA substrate, FRET substrate of CypA, MW 1556.2 amu]
- Δfluorescence emission vs buffer (CypA [5]): 319 a. u.

Compound: CypA wild type: His-tagged CypA protein
- Kd (AIF(370-394); full-length protein: CypA / CypAR55A immobilized (200 µg/mL, sodium acetate pH 5.5), AIF(370-394) added at several concentrations, means of triplicates (Fig. S7A)): 3000 ± 600 nM

Compound: CypA(83-90): CypA-derived synthetic peptide, residues 83-90 (FEDENFIL)
- KD (AIF(370-394)): No binding
- KD (AIF(Δ1-121)): No binding

Compound: CypA(136-150): CypA-derived synthetic peptide, residues 136-150 (MNIVEAMERFGSRNG)
- KD (AIF(370-394)): No binding
- binding / affinity for AIF(370-394), in words (AIF(370-394)): did not interact with AIF(370-394)
- KD (AIF(Δ1-121)): No binding
